In patent US20250262210A1 (TRUSTEES OF COLUMBIA UNIVERSITY IN THE CITY OF NEW YORK, published 2025):

T1: LZTR1 R810W-FLAG (human, UniProt Q8N653 1-840)
T1 construct: Stably expressed in U87 cells by lentivirus; also called LZTR1-FLAG-R810W; LZTR1 RW; not shown: FLAG tag
T1 sequence (looked up): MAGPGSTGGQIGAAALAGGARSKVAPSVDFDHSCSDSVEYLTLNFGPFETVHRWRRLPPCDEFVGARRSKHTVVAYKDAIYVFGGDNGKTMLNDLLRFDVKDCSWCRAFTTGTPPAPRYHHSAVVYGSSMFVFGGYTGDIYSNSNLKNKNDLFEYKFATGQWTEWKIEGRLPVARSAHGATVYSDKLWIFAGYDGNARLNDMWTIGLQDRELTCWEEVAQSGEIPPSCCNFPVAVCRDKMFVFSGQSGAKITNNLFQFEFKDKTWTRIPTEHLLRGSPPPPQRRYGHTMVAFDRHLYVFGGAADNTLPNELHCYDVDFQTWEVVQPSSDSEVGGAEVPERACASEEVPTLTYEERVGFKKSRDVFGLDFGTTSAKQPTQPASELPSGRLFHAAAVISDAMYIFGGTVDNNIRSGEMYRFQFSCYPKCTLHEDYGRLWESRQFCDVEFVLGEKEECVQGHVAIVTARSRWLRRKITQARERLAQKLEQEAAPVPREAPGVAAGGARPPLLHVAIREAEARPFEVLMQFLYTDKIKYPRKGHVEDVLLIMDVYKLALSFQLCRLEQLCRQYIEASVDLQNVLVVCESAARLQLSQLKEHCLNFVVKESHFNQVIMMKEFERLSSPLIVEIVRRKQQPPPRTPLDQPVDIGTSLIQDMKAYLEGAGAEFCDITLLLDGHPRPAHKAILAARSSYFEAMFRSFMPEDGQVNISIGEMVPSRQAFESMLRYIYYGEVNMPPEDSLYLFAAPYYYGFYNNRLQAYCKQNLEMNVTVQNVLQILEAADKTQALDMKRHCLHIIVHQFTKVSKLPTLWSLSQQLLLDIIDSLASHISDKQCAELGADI

T2: LZTR1-FLAG (human, UniProt Q8N653 1-840)
T2 construct: Expressed in HEK 293T, HeLa or U87 cells; used as cell lysate; also called LZTR1 wild type-FLAG; LZTR1 WT; not shown: FLAG tag at the C-terminus
T2 sequence (looked up): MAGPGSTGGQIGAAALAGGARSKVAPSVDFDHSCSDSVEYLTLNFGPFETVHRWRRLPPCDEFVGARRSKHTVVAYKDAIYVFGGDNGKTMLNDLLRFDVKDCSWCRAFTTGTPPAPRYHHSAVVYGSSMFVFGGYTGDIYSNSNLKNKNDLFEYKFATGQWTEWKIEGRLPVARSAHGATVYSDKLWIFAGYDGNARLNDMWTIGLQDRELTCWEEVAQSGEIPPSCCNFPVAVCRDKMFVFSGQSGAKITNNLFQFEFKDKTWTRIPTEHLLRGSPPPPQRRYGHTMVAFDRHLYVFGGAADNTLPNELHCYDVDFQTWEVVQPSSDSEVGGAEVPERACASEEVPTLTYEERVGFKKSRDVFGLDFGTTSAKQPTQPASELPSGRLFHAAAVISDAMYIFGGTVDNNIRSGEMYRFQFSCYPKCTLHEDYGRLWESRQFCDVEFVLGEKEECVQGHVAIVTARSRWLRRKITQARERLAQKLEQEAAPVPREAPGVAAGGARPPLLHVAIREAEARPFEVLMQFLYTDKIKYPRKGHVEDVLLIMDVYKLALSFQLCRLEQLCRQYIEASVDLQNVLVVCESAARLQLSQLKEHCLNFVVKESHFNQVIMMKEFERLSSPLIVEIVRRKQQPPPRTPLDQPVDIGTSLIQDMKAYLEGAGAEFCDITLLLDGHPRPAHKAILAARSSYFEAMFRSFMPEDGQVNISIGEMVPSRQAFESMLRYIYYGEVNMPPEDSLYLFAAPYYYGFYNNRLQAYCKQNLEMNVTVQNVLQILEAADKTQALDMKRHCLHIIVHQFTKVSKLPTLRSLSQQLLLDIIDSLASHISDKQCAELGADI


What was measured:
LZTR1 R810W-FLAG = molecular target: T1, LZTR1 R810W-FLAG; test: IP/MS, LZTR1 R810W-FLAG, U87
Method in brief: (§1)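 Read-out: spectral counts from LC-MS/MS (Orbitrap Fusion) after MaxQuant identification. Variable modifications were Met oxidation, protein N-terminal acetylation and N/Q deamidation.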

LZTR1-FLAG = molecular target: T2, LZTR1-FLAG; test: IP/MS, LZTR1 wild type-FLAG, U87
Method in brief: as §1

Binder	binding result (LZTR1 R810W-FLAG)	binding result (LZTR1-FLAG)
VPS16 (other, human, UniProt Q9H269 1-839, looked up) MDCYTANWNPLGDSAFYRKYELYSMDWDLKEELRDCLVAAAPYGGPIALLRNPWRKEKAASVRPVLDIYSASGMPLASLLWKSGPVVSLGWSAEEELLCVQEDGAVLVYGLHGDFRRHFSMGNEVLQNRVLDARIFHTEFGSGVAILTGAHRFTLSANVGDLKLRRMPEVPGLQSAPSCWTVLCQDRVAHILLAVGPDLYLLDHAACSAVTPPGLAPGVSSFLQMAVSFTYRHLALFTDTGYIWMGTASLKEKLCEFNCNIRAPPKQMVWCSRPRSKERAVVVAWERRLMVVGDAPESIQFVLDEDSYLVPELDGVRIFSRSTHEFLHEVPAASEEIFKIASMAPGALLLEAQKEYEKESQKADEYLREIQELGQLTQAVQQCIEAAGHEHQPDMQKSLLRAASFGKCFLDRFPPDSFVHMCQDLRVLNAVRDYHIGIPLTYSQYKQLTIQVLLDRLVLRRLYPLAIQICEYLRLPEVQGVSRILAHWACYKVQQKDVSDEDVARAINQKLGDTPGVSYSDIAARAYGCGRTELAIKLLEYEPRSGEQVPLLLKMKRSKLALSKAIESGDTDLVFTVLLHLKNELNRGDFFMTLRNQPMALSLYRQFCKHQELETLKDLYNQDDNHQELGSFHIRASYAAEERIEGRVAALQTAADAFYKAKNEFAAKATEDQMRLLRLQRRLEDELGGQFLDLSLHDTVTTLILGGHNKRAEQLARDFRIPDKRLWWLKLTALADLEDWEELEKFSKSKKSPIGYLPFVEICMKQHNKYEAKKYASRVGPEQKVKALLLVGDVAQAADVAIEHRNEAELSLVLSHCTGATDGATADKIQRARAQAQKK	binds	binds
ZC3HC1 (other, human, UniProt Q86WB0 2-502, looked up) AAPCEGQAFAVGVEKNWGAVVRSPEGTPQKIRQLIDEGIAPEEGGVDAKDTSATSQSVNGSPQAEQPSLESTSKEAFFSRVETFSSLKWAGKPFELSPLVCAKYGWVTVECDMLKCSSCQAFLCASLQPAFDFDRYKQRCAELKKALCTAHEKFCFWPDSPSPDRFGMLPLDEPAILVSEFLDRFQSLCHLDLQLPSLRPEDLKTMCLTEDKISLLLHLLEDELDHRTDERKTTIKLGSDIQVHVTACILSVCGWACSSSLESMQLSLITCSQCMRKVGLWGFQQIESSMTDLDASFGLTSSPIPGLEGRPERLPLVPESPRRMMTRSQDATFSPGSEQAEKSPGPIVSRTRSWDSSSPVDRPEPEAASPTTRTRPVTRSMGTGDTPGLEVPSSPLRKAKRARLCSSSSSDTSSRSFFDPTSQHRDWCPWVNITLGKESRENGGTEPDASAPAEPGWKAVLTILLAHKQSSQPAETDSMSLSEKSRKVFRIFRQWESLCSC	binds	binds

The next lines start with the values.

binding result (LZTR1 R810W-FLAG)	binding result (LZTR1-FLAG)	Binder
binds	binds	VPS51 (other, human, UniProt Q9UID3 2-782, looked up) AAAAAAGPSPGSGPGDSPEGPEGEAPERRRKAHGMLKLYYGLSEGEAAGRPAGPDPLDPTDLNGAHFDPEVYLDKLRRECPLAQLMDSETDMVRQIRALDSDMQTLVYENYNKFISATDTIRKMKNDFRKMEDEMDRLATNMAVITDFSARISATLQDRHERITKLAGVHALLRKLQFLFELPSRLTKCVELGAYGQAVRYQGRAQAVLQQYQHLPSFRAIQDDCQVITARLAQQLRQRFREGGSGAPEQAECVELLLALGEPAEELCEEFLAHARGRLEKELRNLEAELGPSPPAPDVLEFTDHGGSGFVGGLCQVAAAYQELFAAQGPAGAEKLAAFARQLGSRYFALVERRLAQEQGGGDNSLLVRALDRFHRRLRAPGALLAAAGLADAATEIVERVARERLGHHLQGLRAAFLGCLTDVRQALAAPRVAGKEGPGLAELLANVASSILSHIKASLAAVHLFTAKEVSFSNKPYFRGEFCSQGVREGLIVGFVHSMCQTAQSFCDSPGEKGGATPPALLLLLSRLCLDYETATISYILTLTDEQFLVQDQFPVTPVSTLCAEARETARRLLTHYVKVQGLVISQMLRKSVETRDWLSTLEPRNVRAVMKRVVEDTTAIDVQVGLLYEEGVRKAQSSDSSKRTFSVYSSSRQQGRYAPSYTPSAPMDTNLLSNIQKLFSERIDVFSPVEFNKVSVLTGIIKISLKTLLECVRLRTFGRFGLQQVQVDCHFLQLYLWRFVADEELVHLLLDEVVASAALRCPDPVPMEPSVVEVICERG
binds	binds	YME1L1 (other, human, UniProt Q96TA2 1-773, looked up) MFSLSSTVQPQVTVPLSHLINAFHTPKNTSVSLSGVSVSQNQHRDVVPEHEAPSSECMFSDFLTKLNIVSIGKGKIFEGYRSMFMEPAKRMKKSLDTTDNWHIRPEPFSLSIPPSLNLRDLGLSELKIGQIDQLVENLLPGFCKGKNISSHWHTSHVSAQSFFENKYGNLDIFSTLRSSCLYRHHSRALQSICSDLQYWPVFIQSRGFKTLKSRTRRLQSTSERLAETQNIAPSFVKGFLLRDRGSDVESLDKLMKTKNIPEAHQDAFKTGFAEGFLKAQALTQKTNDSLRRTRLILFVLLLFGIYGLLKNPFLSVRFRTTTGLDSAVDPVQMKNVTFEHVKGVEEAKQELQEVVEFLKNPQKFTILGGKLPKGILLVGPPGTGKTLLARAVAGEADVPFYYASGSEFDEMFVGVGASRIRNLFREAKANAPCVIFIDELDSVGGKRIESPMHPYSRQTINQLLAEMDGFKPNEGVIIIGATNFPEALDNALIRPGRFDMQVTVPRPDVKGRTEILKWYLNKIKFDQSVDPEIIARGTVGFSGAELENLVNQAALKAAVDGKEMVTMKELEFSKDKILMGPERRSVEIDNKNKTITAYHESGHAIIAYYTKDAMPINKATIMPRGPTLGHVSLLPENDRWNETRAQLLAQMDVSMGGRVAEELIFGTDHITTGASSDFDNATKIAKRMVTKFGMSEKLGVMTYSDTGKLSPETQSAIEQEIRILLRDSYERAKHILKTHAKEHKNLAEALLTYETLDAKEIQIVLEGKKLEVR
